Test results as given in the DeepSol protein solubility set.

Assay: soluble on expression in E. coli; label from the status in PepcDB or PDB records
For “MRPEHLSLQLLAWIYLINGNPIVQKGGLEVLDITDSNDLSVRQRFEEVIRLDCASQRRKALKRKTDGDARIYIPTCSPKNSLLYDKVQCYDVSIYCWCVDELSGEPKLGSSTTRGKPKCEETPTTTVAPKRVRRNNRCKEKKRTRFLRRLVSTLKSEMIMSGINATKVSRDSAIRWKFNQLNINHNNVLERSEWKPFKSVLLEWKNVRQCSRNLFKTCDLNKDRKLTFDEWRKCIVQEINRVPAKRPDQLNPFLYILRSE”, the “soluble on expression in E. coli” value was “soluble”. In the case of “GPGSMIGLYRVVQFVHLTFFSTGHDLKRRYSKAGDWAVVTGGTEGIGRAVALDLANRGFNVCVISRTQSKLDEVVAEIEKCGTRGHSIAFDFATAGEAEYKMLFAKLDSLAVGLLVNNVGVNYTYANYFDEADVVDDLRIIKVNCEATTRMTKFFAPRMKARRAGGIVLLGSFSAVTPAPLLATYAGTKAFNVSFGDALFYELKKFGVDVLVVTPNLVVSRMTQGASTRAPKETFLTVGAAAMARQTLNQLGVVNRTAGHRNHIIIEAIARLLPESLRGEKMLAMHESIKKRAERKAKQ”, the “soluble on expression in E. coli” value is reported as “not soluble”. For “MSLQIEFREFNPFDCWIWVEFSTVPAPLEQQYLEELFDSWFFLGKLGGFNAENLQAQEEGLELSYMSYQSAQERSSLAALMHNMGEVEYQGRWARCWFDLGTSDAIALDVLLNALQRLSEEMVGLEQVFVGGENADWPSPGRRSLDFAADEGHHHHHH”, the “soluble on expression in E. coli” value was “soluble”. In the case of “MGSDKIHHHHHHMEYVIEMNNITKVFPGIVANDDITLQVKQGEIHALLGENGAGKSTLMNVLFGLYQPEQGEIKIKGKPVKITNPNIANDLGIGMVHQHFMLVHNFTVTENIILGNEPKKNGKIAVEEAAKEIKQLSEQYGLAVDPHAKIEDISVGMQQRVEILKTLYRGAEILIFDEPTAVLTPQEIHELIQIMKKLVQEGKSIILITHKLKEIMEVCDRCTIIRKGKGIGTVDVAETDEHKLAELMVGRQVNFKTEKIEAKPMEEVLSIANLIVHDTRKLPAVKGLDLTVRAGEIVGIAGIDGNGQSELIEAITGLRKVESGSIAIKGKEITNWPVRRITEEGIGHIPEDRHKHGLVLDFSVRDNIVLQTYYKNPFSKKGILNFSKITEKAKALIEQFDVRTPSEQTLARALSGGNQQKAIIAREVDRNPDLLIAAQPTRGLDVGAIEFIHKKLIEQRDNGKAVLLLSLELDEILNVSDRVAVIYEGKIVAIVDAKETNEQQLGLLMAGGTGKEKVNTNG”, the “soluble on expression in E. coli” value is reported as “not soluble”. In the case of “MALLEICCYSMECALTAQQNGADRVELCAAPKEGGLTPSLGVLKSVRQRVTIPVHPIIRPRGGDFCYSDGEFAAILEDVRTVRELGFPGLVTGVLDVDGNVDMPRMEKIMAAAGPLAVTFHRAFDMCANPLYTLNNLAELGIARVLTSGQKSDALQGLSKIMELIAHRDAPIIMAGAGVRAENLHHFLDAGVLEVHSSAGAWQASPMRYRNQGLSMSSDEHADEYSRYIVDGAAVAEMKGIIERHQAKLEHHHHHH”, the “soluble on expression in E. coli” value is reported as “soluble”. In the case of “MGSDKIHHHHHHMLTGHHAPVRAYDAHASSNSSTGFRGRLRLSVATTERQCSMIIAHLSDLHIRETGKPFASGNVDCTARAAQAFERVANMTPRPDMMVVTGDLADSGQIGEYQLLKELTEGLPFPVHLALGNHDIRENFLAVFPEKKGPGGFVQFCVEHDKLRVIGLDTLVEGEGLGRLCSERLSYLRDCLQERPNTSTLILLHHPPFAFGGGIYDAVRLIDGARELGEIITANKQVVRLLCGHHHRAIDCLWNGTLASVAPSVVSSCHLQLGDVRVFKNINEPPAFKLHVLVPESGFVSHNVFVEDFGPAYENIPDPNYQALASMRKQTALAASR”, the “soluble on expression in E. coli” value is reported as “not soluble”. With “MSAATYRKLTSANLLDPVRCRLLISRNRCRVTGVKVPNPLKKVSNFFWRYRAPQAAPGHANPAYFPEADNFED” the “soluble on expression in E. coli” value was “not soluble”. With “MGSDKIHHHHHHMIINNNIKELSIAHLQLIVCLIKHGNSCVVSDELGISQSSISYHLRRLRVIFADEMFIRTGKGLKPTERCIQIGHFAQDLINRVEEELIHANDFVPKQMKRELTLIAADTACGWFSTLFSDMQKTLPRVTLCARPWNLKSMEDLDSGAVDFGIHIIENSKKGIYDMDIAPCYRLCVVRDGHPLISKGEVTLKDLEQYPVLINDLGGWNNDGNSLMQRVLEKHGLKLNIAGRLGYINSIFTALHTSNAITYTSAASIPQSIPGLTLLRGPKEVNEVDCFYRLYISRMRYGSQETNYLIDFIYDSFKHFLTQQYNRIDIAAVINK” the “soluble on expression in E. coli” value was “not soluble”. In the case of “ENKDNKGQIKTLDRDGQSITSYSFFAKNGDNVEKINVEVDQRQLSKDESLKLMENSRNKLVKLVLDKNKSANHIDKPLNLIREIPDTDISVTWDISDSRVLNYDGQIMSDVSQEGTIVNLTANMELNELTLSYTFAVNVFPRNYKGDIQEAVQEYINSQDSEQKKIFLPENISGEKISYYKSASK”, the “soluble on expression in E. coli” value is reported as “soluble”. In the case of AELPPEFAAQLRKIGDKVYCTWSAPDM, the “soluble on expression in E. coli” value is reported as “soluble”. For “SNAYTDESGLSELVNAAGEKLQDLELMGQKNAVRDFFKELIADSGKVAYGESQVRANLEINSVDVLLLSEDLRAERVTTKCSVCGYENKWTRRWKPGEPAPAAGNCPKCGSSLEVTDVTDIVDEFSELADKSNAKVVFVSTDFDEGSQLMNAFGGIAAILRYNTGV”, the “soluble on expression in E. coli” value was “soluble”. With “MTTMRTGSQIFMRSGQWNELWKEKNVPLRFTNPNISFDGSERTKAEIEVVDSQEKSLVTRNMQIIPWQHDIANLHLPERDSLILMPCATRTVGRRLTARNIGLADTRGNCDISWPGVMIKIYGQQAVTSARSHQKTAVLFSVRRAQVAAMILTYPWLLSEPVRVIARYSGVSVGTVSNALKIFQKAGYLAETMDGHRLVNAELFLSAWARAYPTGLGADLELLRGKAQQLPPYNLEHLGVKASESAVSDHISDGQSASLYLGEETFSPKVIKELRLVKNPAGTITLRRAFWNTIDVKEIPEAIVYADLLNSDDARLWDVAQIIKAIILKRARGDWLGDQDG” the “soluble on expression in E. coli” value was “not soluble”. For “MTLSFTARWRDELPATYTALLPTPLKNARLIWYNDELAQQLAIPASLFDATNGAGVWGGETLLPGMSPVAQVYSGHQFGVWAGQLGDGRGILLGEQLLADGSTLDWHLKGAGLTPYSRMGDGRAVLRSTIRESLASEAMHYLGIPTTRALSIVTSDTPVQRETQETGAMLMRLAQSHMRFGHFEHFYYRREPEKVQQLADFAIRHYWPQWQDVAEKYALWFEEVAARTGRLIAEWQTVGFAHGVMNTDNMSILGLTIDYGPFGFLDDYDPGFIGNHSDHQGRYRFDNQPSVALWNLQRLAQTLTPFIEIDALNRALDRYQDALLTHYGQRMRQKLGFFTEQKDDNVLLNELFSLMAREGSDYTRTFRMLSHTEQQSASSPLRDTFIDRAAFDAWFDRYRARLRTEAVDDALRQQQMQRVNPAIVLRNWLAQRAIDAAEQGDMAELHRLHEVLRQPFTDRDDDYASRPPEWGKRLEVSCSSMAGDPLEHHHHHH”, the “soluble on expression in E. coli” value was “not soluble”. In the case of “MPPMRSKATQWLLSVWGLMDPLYYACSRLEYVGGKENGCRSIFRVRLLRYKGETIHLSDGTTIAANDWLLKIHLHNVRLLCELMQYRSDIQKGRYIFEQVKAGLPHVAHHLYHHEQSSSIKGIIGVTMLNKGCERLGFDVIDIANSFYRWFKMASHWPMMTVAQHRLVPLVRPPKYLVMSKEKLFSLYGCHLIH”, the “soluble on expression in E. coli” value is reported as “not soluble”. With “MELKQFKIAVLPLRDKLLSYARKLTDDHSDAEDAVQEVMLKLWNLRPKLDEYHSIEALAMTMTHHTCMDILRGKHPDNLSLDSVQAASPVATPERLLEEKDEFSLMRHIISTLPPLQQTILRMKDVEEYETEEIAEITGCSSEAIRSNLSRARKKVRDIYLQTIQQRKRRNEA” the “soluble on expression in E. coli” value was “not soluble”. For “MQDSKIPPFSEAKRMKIPTPKQPLTQLPPRIGKKVSNRSKSNQVHAISHQLEMSPNSDSSPGNEYRALRRKYLLLEEDSFALERELKEAEDEVKALEDEKLELLDKLVVMEGLVDP”, the “soluble on expression in E. coli” value was “soluble”. For “MGSDKIHHHHHHMGEAIVITSGKGGVGKTTTSANLGTALAILGKRVCLVDTDIGLRNLDVVMGLENRIIYDLVDVVEGRCKMHQALVKDKRFDDLLYLMPAAQTSDKTAVAPEQIKNMVQELKQEFDYVIIDCPAGIEQGYKNAVSGADKAIVVTTPEISAVRDADRIIGLLEQEENIEPPRLVVNRIRNHLMKNGDTMDIDEIVQHLSIDLLGIVADDDEVIKASNHGEPIAMDPKNRASIAYRNIARRILGESVPLQVLEEQNKGMMAKIKSFFGVRS”, the “soluble on expression in E. coli” value was “not soluble”.
